Measured values published in the domain aggregation screens of Martell et al. (2025).

Assay: soluble fraction after stress (log2 fold change); higher = more stays soluble; pooled small domains, quantitative proteomics
Settings: stress: 50 degC
Outline: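 Quantitative proteomics served as the high-throughput read-out for pooled custom libraries of small protein domains. Each was stressed at 50°C. Aggregation propensity is expressed as the base-two log fold change in soluble protein after stress. A higher value means a larger share of the protein remains in solution.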

HMELVIGESLAVELLRPGKEDGQALGYLPDGSMVVVNNGRAFVGKRVTAEIIGVIRSAGGKMVFSNLLGE
soluble fraction (log2): -2.68

HMNEKAALIFNEWSDFVSKDDEANAQIKFDELITLYKKTGYTKIALLEVATKQASNGDIEGALAKYSLLID
soluble fraction (log2): 0.208

HMKLLLSANISKLRKKYSMTQEQLAEALGVTFASVSKWERGVATPELKLIAEMADMFEVSIDALIGYEFRN
soluble fraction (log2): -1.39

HMYAHLGKNLEVVINKALAQEDPEKKAGFAHHIAYYMKLAYSNWHKELVHDDAIRSELDTITGGELEFSN
soluble fraction (log2): 0.499

HMKKHAPSLMRQIRRELKEGKSPESLLSKAKLISDSYYRSLSFYLLIPYLSPNSKQFQEAISLAGKDID
soluble fraction (log2): 0.255

HMARLQEVVVRVPVEDGQTLAAIYREAEVIERADEGTGVLLTVRIPAPLLGRLRRLEGVHVQP
soluble fraction (log2): -0.125

HMLHVRSALMSELDGIEGIGEKRKRLLFDAFITRDAIAAATLEQLMAVKGMNRPSAEAVHKHFHG
soluble fraction (log2): -0.53

HMRRGKLGMASRLEQIPGIGPKKRKALLKAFGNSIDAIKSAPVEDLMKVKGINLVLAESIKEL
soluble fraction (log2): 0.0167

HMEWGEADFVRLDEALATLRTLSPRQAEVVDLRFFSELSLEETAATLGLSLATVKRDWSVARLYLQRALS
soluble fraction (log2): 0.0743

HMNFAERIKELRKEKGITQIDLAEAVGLSKGTVAMWEVDKREANFDTLNKLSDYFQVSIDYLLGRSNDRS
soluble fraction (log2): 0.0272

HMDSGFMRTTQSYTVARLAEIFRLSGEDYLAVLREYDGWYQDLTSTKDLIRKGSDVPVPEGV
soluble fraction (log2): -1.61

HMDADGEPIKLDQIGISHLSFTVADVKSLGEELVAKGVKLAAPMEAFTSPEGRISSIFVYDPDGILLQFDD
soluble fraction (log2): -0.104

HMSGGIVRLAVKPWGEVFVDGASRGITPPLKQLTLDAGVHRIEIRNPAGPSWTKDVDVVAGQPTTVSHRF
soluble fraction (log2): 0.0289

HMNVVDTGTDANYRVKISAVNLNMRLGPSTSYKSKGYITPGNYTIIKTSGDWGKVKETGYWVALKYTSKIN
soluble fraction (log2): -1.06

HMKYRLLGENLQTIRKARGMKQQELADQIGINMQSLSKIERGLNYPTFETLEKIMNALGITPNELLSG
soluble fraction (log2): -0.461

HMHDRRSGKVKWYSDRKGYGFIDLDGGEVFIHRSALIAFGALRLQAEDIITITVRETDRGLVVDQLFGIER
soluble fraction (log2): -2.03

HMTKNEFLQGLKEELEGRVTHSAIQENIRYYDDYISQEVLKGSTEEEVTESLGGPRIIARTIVDAAYD
soluble fraction (log2): -0.0458

HMAAHWANFLEALRAGRARRVLVARGVEGWLLKELERLGAPYTLVPRIELDTLLRTTHHQGIAAEVE
soluble fraction (log2): -0.692

HMDKSRPVLRVGDSGDWVSKLQTALLEFGYRVAVDGVFGEHTKSAVVHFQNGRRLIADGVVGNLTWDALL
soluble fraction (log2): -2.31

HMQAPAFDYSKVQEGVTVNHKIFGDGTVSWIDKARKYIRVQFSVGEKMFTMETAFVQGFLSL
soluble fraction (log2): -0.348

HMKVQEMTANSFLTQWEAGNVKTLDILPEGIIKGELNDGTKFQLYYSSAAGLIDDVKKNPEKFANTTVSEK
soluble fraction (log2): 0.129

HMSLSEYLSAPVLEGQRNHALFSAVMQAREQGWDEWQIRTTIGAKAEADGLRHAEIAATIRSAMSREITP
soluble fraction (log2): -0.121

HMANDNFPLKLGSKGPRVLQLKTMLIQSLSNDALPKGRSSDAFDSELEALLSRNNLPTVIDETNFRVLTK
soluble fraction (log2): 0.386

HMPQFDRQAFGQRLRLLRDYREMTQQQVANFLNVDRSTYSYYENGKTEPSITVLMRMAELFSVTLDSLLNM
soluble fraction (log2): -2.83

HMLKNYATPEQRAQLDMLKDKGIIGENELMQLGKYPSQDKASEVLENHADAVKMLDSDEISNRAEAIRSHD
soluble fraction (log2): 0.134

HMIAAPFVVKDIRVDGVQPATGEAIISSLPVKVGQTATDADVSNVVRQLFSLNRFQNVQATREGNTLVIKV
soluble fraction (log2): 0.0499

HMGWTTPAGIAVGMDKSVLQDAYGKEDDTFQDKGILYYQYFVHPSRMSGLSFGIKNDKIVSITAYMD
soluble fraction (log2): -2.06

HMYGTERILAQLANYGIPNKLAFQIQDFYKEETLQIVEQQPYRLVEDIQGMGFKIADQLAEELGI
soluble fraction (log2): -0.317

HMRTNVDISPKILEWVLSQVRNRTTNDVIETIQIWIKGEKPPTFNQVEKISKATGVPLGYFFLKTPPVED
soluble fraction (log2): -0.805

HMQKAQEYILVDIKGEVQTPGVYKLPVNSRVIDAIEASGGLTKKAVTTYINLSKTLKDENVIIINKKSEL
soluble fraction (log2): -0.2

HMAAQLAHVPAVTGRPLAEAQRILADNRLNAQVTQQPVAEPKLDGVVIAQKITEGTRTMRGATVPLIVGKY
soluble fraction (log2): 0.128

HMDSAMMDLVMRVQLALFTKGYDVGIIDGKIGPKTRAQIKRYQSDNRLSSTGTLTTSLLTSLGIQ
soluble fraction (log2): -1.88

HMDYAQAQRQAESAIALRPDVERLRLLLIYALQKQGKLREAEQAAADAIKSGLDTPALRQARANLRP
soluble fraction (log2): -0.264

HMVNSADLAAKPFIDLLVSTRQQLREAKQYDLADTIRDELTNHGITIEDKPQGSEWQYEFNPNS
soluble fraction (log2): 0.112

HMVGNEEALRAIVESIIAQNTTEVASFREGKEGLIGWFLGQVMRQTGGKADPKLARQILLELLKQ
soluble fraction (log2): -0.242

HMNRITEFVVPEGTKKIRADKLLAESFPDHSRSDFHRAFDASLVRLEGQPISKNRKISQGDVLVFEMPEI
soluble fraction (log2): 0.281

HMEFNQAVQDVNELSMQYAKSDVLWPEFEPKVLAFAKNELSQMPPNQWKFALQTFYNGLKQAA
soluble fraction (log2): -0.352

HMAVRNTKQKQLVLSLLKNSGRPMTAGEIYRLAVQQYPNIAKSTVYRNLENLVSRGEVSQGMHQNGESFYS
soluble fraction (log2): -0.299

HMVSVEELLSSLDPNEATVLKLLAERSSGVDELMERSGLDFSALSEAITNLELFGYIAREMDGVYSFS
soluble fraction (log2): -0.559

HMDDSSLFGRHTGIGFIVDDIDSGYQTLLAKGVSFEMPPTEQPWGGILALMKDPDGNIFYLD
soluble fraction (log2): -0.0639

HMDYIITHYPDNKRFETQVDGVVAFVQYRLSGDKLDIIHTIVPPAIGGRGIAAALVKYAYDYAIENGMK
soluble fraction (log2): -0.76

HMPGLITLEAAKTTALNHAKLTADQVTFVKQKLDRDDGRQVYEIEFYTSDYKEYDYEIDAVSGLILEVDYD
soluble fraction (log2): -0.671

HMPDYYAILEVERTADAKTIKAAYRKLALAYHPDRNPGDQAAEERFKQINEAYAVLSDPEKRARYDRYGSV
soluble fraction (log2): -0.31

HMTDVRFIDIPVTEHHPWNGMKVRDLQLPPGTLLVFLSHPGEKNTVPHGETVLRSGDVLVLGATAYTGQ
soluble fraction (log2): -0.0558

HMGAGDKQAQQASLMQIIALQKEGMALGLVEPKHLYHSFSKMIENAGFKDVQSFAVDPSTQQ
soluble fraction (log2): -0.0552

HMSAISSARKEKIIEYLTDHGSARSSEIAEYVDLRPSRVRDYLGELVREDIVVAEGANRNRTYRLK
soluble fraction (log2): 0.0293

HMITLYIHNLEEVGKRLDHYLVSNLDDHSRSQIQSWIRSGSILVNDRSVKTGYSLELNDQILINPPK
soluble fraction (log2): -2.63

HMGISVEVPDLKNMSVAEAGSLLKNSGLSYAVVDSDYVKTISPGKILDQNPGRGLRVKKGRIVYLTINSL
soluble fraction (log2): -1.37

HMAVSSHAVKQRIRSLIQAEDPAAPLSDEALRLALSALGVDVSRRVIAKYRAELNIPSSSQRKK
soluble fraction (log2): 0.045

HMPFREGDEVFVELVEPHMYNEDDAVAKLDGYVVAVRGAAGLVGQKVLVRIERVGRSSAEATLVA
soluble fraction (log2): 0.109

HMKRVPFAFAGDMLRWAAWLYHVEKRTQNEIAEELEVSRQTVANYLSEAMSQGLVQVQLRSDIIE
soluble fraction (log2): -1.52

HMLRNDEAVMLGRRLLNKHLQAFSVQIKDISHQRIHDLLDELELESLDHLLDDIGLGNRSVFLVAQKLLQ
soluble fraction (log2): -1.39

HMNHHEIIMKNIDTLLKEKNISISKLEKSLGISNGYISRLRNGKYNFSLDLLLKLAKKFKISIDYLLTDFD
soluble fraction (log2): 0.00249

HMQDGTILPGQKTAIRSLATSGGYDSQDLDTYLATTYGKSIDGLTRTEGADVIKAFQAGTVAK
soluble fraction (log2): 0.233

HMKGSPFSQLPKEKKKRILQAAIEVFAQNDYKHASTDEIASRAGISKGLLFYYFHDKKTLYFYLGEYLKR
soluble fraction (log2): -0.0373
